This assay concerns the target KirBac1.1 WT. Kind of assay: SEC.

For orientation: stoichiometry N means a count of units in the complex or per binding partner. The substance KirBac1.1 WT (natural protein) had a stoichiometry N of 4.

The record behind these values is PMC4833211.
